Test results reported in patent US20200048644A1.

Target: recombinant GPIb
Assay: GPIb binding activity test of the purified product (format not described; FIG. 9)

B1: recombinant Agkisacutacin (heterodimer snake venom protein, A chain and B chain, expressed in Pichia pastoris GS115) (protein)
chain 1: DVDCLPGWSAYDQSCYRVFKLLKTWDDAEKFCTERPKGGHLVSIESAGERDFVAQLVSENKQTDNVWLGLKIQSKGQQCSTEWTDGSSVSYENFSEYQSKKCFVEKNTGFRTWLNLNCGSEYAFVCKSPP
chain 2: GFCCPLRWSSYEGHCYLVVKEKKTWDDAEKFCTEQRKGGHLVSVHSREEADFLVHLAYPILDLSLIWMGLSNMWNDCKREWSDGTKLDFKAWAKTSDCLIGKTDDNQWLNMDCSKKHYFVCKFKL
Kd: 100 nM
